B1: Δ9AA-ZnT2-YN (other)
chain: MEAKEKQHLLDARPAIRSYTGSLWQEGAGWIPLPRPGLDLQAIELAAQSNHHCHAQKGPDSHCDPKKGKAQRQLYVASAICLLFMIGEVVGGYLAHSLAVMTDAAHLLTDFASMLISLFSLWMSSRPATKTMNFGWQRAEILGALVSVLSIWVVTGVLVYLAVERLISGDYEIDGGTMLITSGCAVAVNIIMGLTLHQSGHGHSHGTTNQQEENPSVRAAFIHVIGDFMQSMGVLVAAYILYFKPEYKYVDPICTFVFSILVLGTTLTILRDVILVLMEAVRDLLLSVEGVEALHSLHIWALTVAQPVLSVHIAIAQNTDAQAVLKTASSRLQGKFHFHTVTIQIEDYSEDMKDCQACQGPSD
modifications: Carries a C-terminal YN reporter (non-fluorescent N-terminal half of YFP), not included in the letters.
notes: Deletion introduced into the ZnT2 BiFC plasmid by site-directed mutagenesis (27 bp, 839_865del); also called Δ9AA-YN; truncated Δ9AA-ZnT2; not shown: YN, the N-terminal half of YFP, and any linker to it
B2: Δ9AA-ZnT2-YC (other)
chain: B1 chain
modifications: Carries a C-terminal YC reporter (non-fluorescent C-terminal half of YFP), not included in the letters.
notes: Deletion introduced into the ZnT2 BiFC plasmid by site-directed mutagenesis (27 bp, 839_865del); also called Δ9AA-YC; truncated Δ9AA-ZnT2; not shown: YC, the C-terminal half of YFP, and any linker to it
B3: WT-ZnT2-YN (other)
chain: MEAKEKQHLLDARPAIRSYTGSLWQEGAGWIPLPRPGLDLQAIELAAQSNHHCHAQKGPDSHCDPKKGKAQRQLYVASAICLLFMIGEVVGGYLAHSLAVMTDAAHLLTDFASMLISLFSLWMSSRPATKTMNFGWQRAEILGALVSVLSIWVVTGVLVYLAVERLISGDYEIDGGTMLITSGCAVAVNIIMGLTLHQSGHGHSHGTTNQQEENPSVRAAFIHVIGDFMQSMGVLVAAYILYFKPEYKYVDPICTFVFSILVLGTTLTILRDVILVLMEGTPKGVDFTAVRDLLLSVEGVEALHSLHIWALTVAQPVLSVHIAIAQNTDAQAVLKTASSRLQGKFHFHTVTIQIEDYSEDMKDCQACQGPSD
modifications: Carries a C-terminal YN reporter (non-fluorescent N-terminal half of YFP), not included in the letters.
notes: BiFC construct expressed in living MCF-7 cells; not shown: YN, the N-terminal half of YFP, and any linker to it

Assays:
Δ9AA-ZnT2-YC = molecular target: B2; assay: BiFC in MCF-7 cells, YFP fluorescence by flow cytometry
Description: (§1) The ability of the alternative 3′ splice variant (Δ9AA) ZnT2 to form homodimers was evaluated using the bimolecular fluorescence complementation (BiFC) assay that has been previously applied for the detection of in situ dimerization of ZnT2 and other ZnTs in living cells. High YFP fluorescence intensity indicates a strong interaction between the two tagged proteins, as this enables the refolding of the two non-fluorescent halves of YFP (YN and YC) into a fully fluorescent protein.

WT-ZnT2-YC [1] = molecular target: T1, WT-ZnT2-YC (human, UniProt Q9BRI3 1-372, Carries a C-terminal YC reporter (non-fluorescent C-terminal half of YFP), not included in the letters.); assay: as above
T1 construct: BiFC construct expressed in living MCF-7 cells; not shown: YC, the C-terminal half of YFP, and any linker to it
T1 sequence: B3 chain
Description: as §1

WT-ZnT2-YN = molecular target: B3; assay: as above
Description: as §1

β2AR-YC = molecular target: T2, β2AR-YC (UniProt P07550 1-413); assay: as above
T2 construct: whole, on cells; Negative control partner in the BiFC assay; not shown: YC: non-fluorescent C-terminal half of YFP (BiFC tag)
Description: as §1

WT-ZnT2-YC [2] = molecular target: T1, WT-ZnT2-YC; assay: western blot of BiFC transfectants (SDS-metastable dimers), anti-ZnT2 antibody
Description: MCF-7 cells were transiently transfected with the designated plasmids (3 μg in single construct transfection and 1.5 μg DNA of each construct in co-transfections). Membrane proteins were isolated on ice using an extraction buffer as previously described (Golan Y., et al., Journal of Biological Chemistry, 2015, 290(14):9050-63). Briefly, proteins (30 μg) were resolved by electrophoresis on 10% polyacrylamide gels, electroblotted onto cellulose nitrate membranes, blocked with Tris-buffered saline (TBS)-milk and reacted with mouse anti-ZnT2 monoclonal antibody (at 1:2,000 dilution, 1 hr at room temperature; generously provided by Prof T Kambe, Kyoto University, Kyoto, Japan). […] Similarly, actual protein loading onto the SDS-PAGE gels was confirmed by blot reprobing with a rabbit polyclonal antibody against the a subunit of Na⁺/K⁺ ATPase (KETTY at 1:3,000 dilution; kindly provided by Prof. S. J. D. Karlish, Weizmann Institute of Science, Rehovot, Israel) and detected with horseradish peroxidase-conjugated goat anti-rabbit IgG (1:15,000 dilution; Jackson Immunoresearch Labs, West Grove, Pa.).
The dimerization results were further confirmed by western blot analysis. […] However, in contrast to the ZnT2 protein which was predominantly present in the homodimer form (FIG. 4C, uppermost band), upon co-transfection of Δ9AA-YN+Δ9AA-YC no homodimers were detected (FIG. 4C). […]

## B1
Δ9AA-ZnT2-YC
  binding result: no binding
WT-ZnT2-YC [1]
  binding result: no binding

## B2
WT-ZnT2-YN
  binding result: no binding

## B3
β2AR-YC
  binding result: no binding
WT-ZnT2-YC [2]
  binding result: binds

Source: US20200040396A1 (TECHNION RESEARCH AND DEVELOPMENT FOUNDATION, published 2020)
